Test results from paper PMC10233381.

Molecular target: Myc-PUM1-R1147W (human) (UniProt Q14671)
Assay: co-IP; HEK293T co-transfected with Myc-PUM1 (WT or mutant) and a GST-tagged protein (250 ng each), 48 h; IP with anti-Myc, immunoblot with anti-GST; quantified against Myc-PUM1-WT; called in vitro by the paper

Sequence of UniProt Q14671 (Q14671 other isoform, or with tags, fused parts or gaps R1147W): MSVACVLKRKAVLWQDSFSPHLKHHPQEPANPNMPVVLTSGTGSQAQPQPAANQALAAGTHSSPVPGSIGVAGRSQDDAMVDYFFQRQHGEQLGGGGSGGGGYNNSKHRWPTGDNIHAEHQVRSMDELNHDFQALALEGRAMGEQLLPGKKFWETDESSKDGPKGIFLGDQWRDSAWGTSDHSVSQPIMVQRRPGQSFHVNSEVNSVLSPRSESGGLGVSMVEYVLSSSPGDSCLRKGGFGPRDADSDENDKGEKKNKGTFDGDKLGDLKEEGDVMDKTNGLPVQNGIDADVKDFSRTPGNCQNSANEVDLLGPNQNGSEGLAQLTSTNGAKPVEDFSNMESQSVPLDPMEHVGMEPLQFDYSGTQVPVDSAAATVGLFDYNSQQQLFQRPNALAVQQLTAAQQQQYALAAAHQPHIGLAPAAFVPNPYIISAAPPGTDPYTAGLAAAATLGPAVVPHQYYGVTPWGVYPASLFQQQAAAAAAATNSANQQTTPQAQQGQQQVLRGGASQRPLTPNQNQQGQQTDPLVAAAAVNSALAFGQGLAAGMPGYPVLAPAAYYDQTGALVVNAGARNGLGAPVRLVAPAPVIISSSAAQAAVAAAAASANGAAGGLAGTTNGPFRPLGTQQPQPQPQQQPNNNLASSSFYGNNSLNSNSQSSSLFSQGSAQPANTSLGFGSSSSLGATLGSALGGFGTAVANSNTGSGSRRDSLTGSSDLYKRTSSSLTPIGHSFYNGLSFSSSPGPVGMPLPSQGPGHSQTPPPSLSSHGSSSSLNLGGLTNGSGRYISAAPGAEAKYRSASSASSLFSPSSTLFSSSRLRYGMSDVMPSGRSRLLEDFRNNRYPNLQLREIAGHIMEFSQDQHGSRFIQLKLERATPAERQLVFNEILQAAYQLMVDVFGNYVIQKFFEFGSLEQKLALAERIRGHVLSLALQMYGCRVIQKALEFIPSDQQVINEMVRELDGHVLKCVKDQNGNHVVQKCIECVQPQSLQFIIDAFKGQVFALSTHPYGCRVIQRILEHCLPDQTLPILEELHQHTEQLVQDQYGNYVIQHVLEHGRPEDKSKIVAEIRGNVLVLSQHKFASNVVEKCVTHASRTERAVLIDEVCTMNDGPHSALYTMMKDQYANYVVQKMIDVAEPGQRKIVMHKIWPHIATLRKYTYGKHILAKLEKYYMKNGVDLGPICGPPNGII

percent by which the interaction was diminished: 35%
Substance: GST-CNOT1 (from UniProt A5YKK6 1-2376) (natural protein)
